Measurements published in patent US6541212.

Target: T1, recombinant secreted soluble PSCA with a C-terminal 6XHis and MYC tag (human) (UniProt O43653)
T1 sequence: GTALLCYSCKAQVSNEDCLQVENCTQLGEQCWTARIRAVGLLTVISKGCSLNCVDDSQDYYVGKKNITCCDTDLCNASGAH
Assay: SPR (BIAcore), recombinant PSCA immobilized at 30 RU, mAb in solution

Kd: 1 nM | kon: 168000 M⁻¹ s⁻¹
B1: anti-PSCA monoclonal antibody 1G8 (antibody, part only; not given: light chain, V domains shown, part only)
VH: CFFLMAVVIGVNSEVQLQQSGAELVRSGASVKLSCTASGFNIKDYYIHWVNQRPDQGLEWIGWIDPENGDTEFVPKFQGKATMTADIFSNTAYLHLSSLTSEDTAVYYCKTGGFWGQGTLVTVSAAKTTPPSVYPL
